Patent US20040138118

Key:
[1] = tested on: D76A mutant myostatin pro peptide
[2] = tested on: myostatin pro peptide (wild type)

Sequence of D76A mutant myostatin pro peptide (chain, as listed by the source D76A): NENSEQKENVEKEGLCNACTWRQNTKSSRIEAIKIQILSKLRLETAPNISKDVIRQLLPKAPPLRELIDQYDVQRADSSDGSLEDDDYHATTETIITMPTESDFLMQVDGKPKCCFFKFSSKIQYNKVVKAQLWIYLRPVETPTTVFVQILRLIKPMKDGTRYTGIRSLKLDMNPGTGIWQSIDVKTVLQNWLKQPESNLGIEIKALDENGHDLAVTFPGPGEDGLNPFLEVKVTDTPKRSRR

For mammalian Tolloid (mTLD), the “proteolytic cleavage of the mutant pro peptide in the latent complex, western blot (FIGS. 3D and E)” value [1] was “completely resistant to proteolysis by each of the four proteinases”, the “partial proteolytic cleavage of the pro peptide in the latent complex, western blot (FIG. 3E)” value [2] was “mTLD was consistently less active than the other three” and the “proteolytic cleavage of free pro peptide” value [2] was “All four of these proteinases also cleaved pro peptide that had been purified away from the C-terminal dimer”. The “proteolytic cleavage, SDS-PAGE and western blot with anti-pro peptide antiserum” value [2] was “A discrete proteolytic cleavage product of the pro peptide was detected in each reaction containing one of the four proteases”.
